The EC50 is the concentration that produces a half-maximal response. Usually Kd stands for the constant that tells how readily two partners part at equilibrium.

Drawing on patent US20110268740A1, this text covers EC50 and Kd for three molecules.

The target of assay [1] is scFv-E040-msFcγ2c.
The target in assay [2] is M2e-short (Influenza A virus (consensus)). The assay can be described thus: ELISA, apparent affinity, purified scFv-msFcγ2c on immobilised M2e-short.
The target of assay [3] is M2e consensus peptide (free, soluble) (Influenza A virus (consensus of H1, H2 and H3 subtypes of human Influenza A viruses)). The assay can be described thus: Friguet ELISA, free M2e peptide in solution. In general terms: In an ELISA, binding on a coated surface is turned into a signal by an enzyme label.

SLLTEVETPIRNEWGCRCNDSSD (modifications not checked) [M2e consensus peptide (free, soluble)] displayed a half-maximal effective concentration (EC50) in assay [1] of 21.3 µM.

B1: scFv-E040-msFcγ2c (Fc fusion)
chain: DADPAQAAELVMTQSPDSLAVSLGERATINCKSSQSVLYSSNNENYLAWYQQKPGQPPKLLIYWASTRESGVPDRFSGSGSGTDFTLTINSVQAEDVAVYYCQQYFMTPITFGQGTRLEIKGGSSRSSSSGGGGSGGGGEVQLLESGGALVQPGRSLRLSCRTSGLNFGDYPINWVRQAPGKGLEWVGFIKSKSYGVTTEFAASVEGRFTISRDDSRGIAYLQMNSLKTEDTAVYYCTSSSGFLYYFDYWGQGTLVTVSSASTKGPSVTSGQAGRKLEPRVPITQNPCPPLKECPPCAAPDLLGGPSVFIFPPKIKDVLMISLSPMVTCVVVDVSEDDPDVQISWFVNNVEVHTAQTQTHREDYNSTLRVVSALPIQHQDWMSGKEFKCKVNNRALPSPIEKTISKPRGPVRAPQVYVLPPPAEEMTKKEFSLTCMITGFLPAEIAVDWTSNGRTEQNYKNTATVLDSDGSYFMYSKLRVQKSTWERGSLFACSVVHEGLHNHLTTKTISRSLGK
As to B1, the EC50 in assay [2] is 0.0902 nM. This molecule yielded a Kd in assay [3] of 0.004 µM.
On to SLLTEVETPIRNEWGC (modifications not checked) [M2e-short], for which the concentration for a half-maximal effect (EC50) in assay [1] is 35.5 µM.
